Source: article PMC2753885 (Biochemistry, 2009)
Where two headings read alike, the source gives them in different places.

T1: YPD1, histidine-containing phosphotransfer (HPt) protein (S. cerevisiae, UniProt Q07688 1-167)
T1 sequence (looked up): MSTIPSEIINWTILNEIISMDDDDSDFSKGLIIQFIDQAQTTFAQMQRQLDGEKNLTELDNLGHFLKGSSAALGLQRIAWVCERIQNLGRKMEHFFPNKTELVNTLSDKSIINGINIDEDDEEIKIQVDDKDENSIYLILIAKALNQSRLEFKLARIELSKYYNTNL

T2: SSK1 response regulator (receiver) domain, SSK1-R2 (S. cerevisiae, UniProt Q07084 495-712)
T2 sequence (looked up): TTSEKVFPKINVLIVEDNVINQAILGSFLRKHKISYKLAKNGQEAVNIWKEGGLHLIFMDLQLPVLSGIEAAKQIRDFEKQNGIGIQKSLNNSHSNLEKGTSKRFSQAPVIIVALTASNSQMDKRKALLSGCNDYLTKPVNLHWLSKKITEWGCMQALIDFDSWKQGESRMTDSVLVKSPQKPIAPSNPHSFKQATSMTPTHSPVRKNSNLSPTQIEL


How the values were obtained:
Experiment in all cases: rapid-quench phosphotransfer kinetics
[1] = target: T1, YPD1, histidine-containing …
[2] = target: T1, YPD1, histidine-containing …; remark: listed apart in the source
[3] = target: T1, YPD1, histidine-containing …; remark: listed apart in the source
[4] = target: T1, YPD1, histidine-containing …; remark: listed apart in the source
[5] = target: T1, YPD1, histidine-containing …; remark: listed apart in the source
[6] = target: T1, YPD1, histidine-containing …; remark: listed apart in the source
[7] = target: T1, YPD1, histidine-containing …; remark: listed apart in the source
[8] = target: T1, YPD1, histidine-containing …; remark: listed apart in the source
[9] = target: T1, YPD1, histidine-containing …; remark: listed apart in the source
[10] = target: T1, YPD1, histidine-containing …; remark: listed apart in the source
[11] = target: T2, SSK1 response regulator (receiver) …
[12] = target: T2, SSK1 response regulator (receiver) …; remark: listed apart in the source
[13] = target: T2, SSK1 response regulator (receiver) …; remark: listed apart in the source
[14] = target: T2, SSK1 response regulator (receiver) …; remark: listed apart in the source
[15] = target: T2, SSK1 response regulator (receiver) …; remark: listed apart in the source
[16] = target: T2, SSK1 response regulator (receiver) …; remark: listed apart in the source
[17] = target: T2, SSK1 response regulator (receiver) …; remark: listed apart in the source
[18] = target: T2, SSK1 response regulator (receiver) …; remark: listed apart in the source
[19] = target: T2, SSK1 response regulator (receiver) …; remark: listed apart in the source
[20] = target: T2, SSK1 response regulator (receiver) …; remark: listed apart in the source

Row | Binder | Kd [1] [µM] | Kd [2] [µM] | Kd [3] [µM] | Kd [4] [µM] | Kd [5] [µM] | Kd [6] [µM] | Kd [7] [µM] | Kd [8] [µM] | Kd [9] [µM] | Kd [10] [µM] | Kd [11] [µM] | Kd [12] [µM] | Kd [13] [µM] | Kd [14] [µM] | Kd [15] [µM] | Kd [16] [µM] | Kd [17] [µM] | Kd [18] [µM] | Kd [19] [µM] | Kd [20] [µM]
1 | phosphorylated SLN1 response regulator (receiver) domain, SLN1-R1∼P (domain or fragment, S. cerevisiae, UniProt P39928 1084-1220, looked up, phosphorylated (32P) by phosphotransfer from phospho-SLN1-HK; residue not printed for this domain) NETSVKILVVEDNHVNQEVIKRMLNLEGIENIELACDGQEAFDKVKELTSKGENYNMIFMDVQMPKVDGLLSTKMIRRDLGYTSPIVALTAFADDSNIKECLESGMNGFLSKPIKRPKLKTILTEFCAAYQGKKNNK | 6.2 | 2.3 | 2.6 | 4.6 | 18 | 10 | 3.2 | 2.7 | 2.3 | 2.8 | – | – | – | – | – | – | – | – | – | –
2 | phosphorylated YPD1, YPD1∼P (natural protein, S. cerevisiae, UniProt Q07688 1-167, looked up, phosphorylated (32P) by phosphotransfer from GST-SLN1-HK-R1; residue not given) MSTIPSEIINWTILNEIISMDDDDSDFSKGLIIQFIDQAQTTFAQMQRQLDGEKNLTELDNLGHFLKGSSAALGLQRIAWVCERIQNLGRKMEHFFPNKTELVNTLSDKSIINGINIDEDDEEIKIQVDDKDENSIYLILIAKALNQSRLEFKLARIELSKYYNTNL | – | – | – | – | – | – | – | – | – | – | 3 | 2.2 | 1.4 | 2.1 | 11.5 | 4 | 4.4 | 4.3 | 4.3 | 3.8
